Data published in article PMC8199036, “Improved Tumor-Targeting with Peptidomimetic Analogs of Minigastrin ^177Lu-PP-F11N” (Cancers, 2021).
Where two headings read alike, the source gives them in different places. Residues, ends and D or L forms follow the SMILES beside them.

Key:
[1] = system: xenografts of A431-CCK2R cells; experiment: biodistribution in mice with CCK2R-positive xenografts; format: in vivo, female CD1-nu mice
Description: (§1) Procedures for biodistribution studies with ^177Lu-labeled conjugates (10 pmol, 100 µL, 0.1 µM in PBS, 0.5 MBq, 1 µg/kg) in female CD1-nu mice with xenografts of A431-CCK2R cells at 1, 4, and 24 h p.i., as well as blocking experiments at 4 h p.i. with a 6000-fold excess of minigastrin have been reported previously and were followed without modifications. Statistical analysis was performed via GraphPad Prism using two-sided analysis of variance. n = 4 animals per group.

[2] = as above; format: in vivo, female CD1-nu mice; details: female, CD1-nu, mouse, total radioactivity; for tissue uptake at 4 h / tissue uptake at 24 h / tissue uptake at 1 h: in vivo
Description: as §1

[3] = female, CD1-nu, mouse, in vivo, 10 pmol, 4 h
[4] = 10 pmol, Stomach (CCK2R-positive) uptake
[5] = 10 pmol, Tumor (CCK2R-positive) uptake
[6] = tumor / blood, 10 pmol, read-out: Tumor-to-Blood ratio
[7] = tumor / kidneys, 10 pmol, read-out: Tumor-to-Kidneys ratio
[8] = tumor / muscle, 10 pmol, read-out: Tumor-to-Muscle ratio
[9] = tumor / stomach, 10 pmol, read-out: Tumor-to-Stomach ratio

Compound: CCCC[C@H](NC(=O)[C@H](Cc1c[nH]c2ccccc12)NC(=O)Cn1cc([C@H](Cc2ccc(O)cc2)NC(=O)[C@H](C)NC(=O)[C@@H](CCC(=O)O)NC(=O)[C@@H](CCC(=O)O)NC(=O)[C@@H](CCC(=O)O)NC(=O)[C@@H](CCC(=O)O)NC(=O)[C@@H](CCC(=O)O)NC(=O)[C@@H](CCC(=O)O)NC(=O)CN2CCN(CC(=O)O)CCN(CC(=O)O)CCN(CC(=O)O)CC2)nn1)C(=O)N[C@@H](CC(=O)O)C(=O)N[C@@H](Cc1ccccc1)C(N)=O [NMG 2, DOTA-(DGlu)6-Ala-Tyr-Ψ[Tz]-Gly-Trp-Nle-Asp-Phe-NH2] (HELM PEPTIDE1{[O=C(O)CN1CCN(CC(=O)O)CCN(CC(=O)[*:2])CCN(CC(=O)O)CC1].[dE].[dE].[dE].[dE].[dE].[dE].A.[O=C(Cn1cc([C@H](Cc2ccc(O)cc2)N[*:1])nn1)[*:2]].W.[Nle].D.F.[am]}$$$$V2.0)
- Tumor washout: tumor uptake relative to 1h ([1]; 4 h): 120%
- Tumor washout: tumor uptake relative to 1h ([1]; 24 h): 80%
- Bone uptake [1, 3]: 0.09 % i.A./g
- Muscle uptake [1, 3]: 0.02 % i.A./g
- tissue uptake at 4 h ([2]; 10 pmol, Blood uptake): 0.01 %ID/g
- tissue uptake at 24 h ([2]; 10 pmol, Blood uptake): < 0.01 %ID/g
- tissue uptake at 1 h ([2]; 10 pmol, Bone uptake): 0.29 %ID/g
- tissue uptake at 4 h ([2]; 10 pmol, Bone uptake): 0.1 %ID/g
- tissue uptake at 24 h ([2]; 10 pmol, Bone uptake): 0.07 %ID/g
- tissue uptake at 1 h ([2]; 10 pmol, Heart uptake): 0.07 %ID/g
- tissue uptake at 4 h ([2]; 10 pmol, Heart uptake): 0.02 %ID/g
- tissue uptake at 24 h ([2]; 10 pmol, Heart uptake): 0.01 %ID/g
- tissue uptake at 1 h ([2]; 10 pmol, Intestines uptake): 0.15 %ID/g
- tissue uptake at 4 h ([2]; 10 pmol, Intestines uptake): 0.07 %ID/g
- tissue uptake at 24 h ([2]; 10 pmol, Intestines uptake): 0.06 %ID/g
- tissue uptake at 1 h ([2]; 10 pmol, Kidneys uptake): 2.19 %ID/g
- tissue uptake at 4 h ([2]; 10 pmol, Kidneys uptake): 2.07 %ID/g
- tissue uptake at 24 h ([2]; 10 pmol, Kidneys uptake): 1.33 %ID/g
- tissue uptake at 1 h ([2]; 10 pmol, Liver uptake): 0.11 %ID/g
- tissue uptake at 4 h ([2]; 10 pmol, Liver uptake): 0.05 %ID/g
- tissue uptake at 24 h ([2]; 10 pmol, Liver uptake): 0.03 %ID/g
- tissue uptake at 1 h ([2]; 10 pmol, Lung uptake): 0.18 %ID/g
- tissue uptake at 4 h ([2]; 10 pmol, Lung uptake): 0.04 %ID/g
- tissue uptake at 24 h ([2]; 10 pmol, Lung uptake): 0.02 %ID/g
- tissue uptake at 1 h ([2]; 10 pmol, Muscle uptake): 0.05 %ID/g
- tissue uptake at 4 h ([2]; 10 pmol, Muscle uptake): 0.01 %ID/g
- tissue uptake at 24 h ([2]; 10 pmol, Muscle uptake): 0.01 %ID/g
- tissue uptake at 1 h ([2]; 10 pmol, Pancreas uptake): 0.33 %ID/g
- tissue uptake at 4 h ([2]; 10 pmol, Pancreas uptake): 0.28 %ID/g
- tissue uptake at 24 h ([2]; 10 pmol, Pancreas uptake): 0.17 %ID/g
- tissue uptake at 1 h ([2]; 10 pmol, Spleen uptake): 0.06 %ID/g
- tissue uptake at 4 h ([2]; 10 pmol, Spleen uptake): 0.03 %ID/g
- tissue uptake at 24 h ([2]; 10 pmol, Spleen uptake): 0.02 %ID/g
- tissue uptake at 1 h [2, 4]: 2.85 %ID/g
- tissue uptake at 4 h [2, 4]: 2.66 %ID/g
- tissue uptake at 24 h [2, 4]: 1.63 %ID/g
- tissue uptake at 1 h [2, 5]: 5.94 %ID/g
- tissue uptake at 4 h [2, 5]: 7.15 %ID/g
- tissue uptake at 24 h [2, 5]: 4.73 %ID/g
- tissue uptake at 4 h ([2]; Blood uptake): 0.01 %ID/g
- tissue uptake at 4 h ([2]; Heart uptake): 0.02 %ID/g
- tissue uptake at 4 h ([2]; Intestines uptake): 0.1 %ID/g
- tissue uptake at 4 h ([2]; Kidneys uptake): 2.24 %ID/g
- tissue uptake at 4 h ([2]; Liver uptake): 0.06 %ID/g
- tissue uptake at 4 h ([2]; Lung uptake): 0.04 %ID/g
- tissue uptake at 4 h ([2]; Pancreas uptake): 0.06 %ID/g
- tissue uptake at 4 h ([2]; Spleen uptake): 0.03 %ID/g
- tissue uptake at 4 h ([2]; Stomach (CCK2R-positive) uptake): 0.46 %ID/g
- tissue uptake at 4 h ([2]; Tumor (CCK2R-positive) uptake): 2.54 %ID/g
- tissue to tissue ratio at 1 h [2, 6]: 31.1 ± 10.3
- tissue to tissue ratio at 4 h [2, 6]: 715 ± 133
- tissue to tissue ratio at 24 h [2, 6]: 4260 ± 1690
- tissue to tissue ratio at 1 h [2, 7]: 2.76 ± 0.79
- tissue to tissue ratio at 4 h [2, 7]: 3.5 ± 0.54
- tissue to tissue ratio at 24 h [2, 7]: 3.78 ± 1.48
- tissue to tissue ratio at 1 h [2, 8]: 124 ± 42.1
- tissue to tissue ratio at 4 h [2, 8]: 715 ± 133
- tissue to tissue ratio at 24 h [2, 8]: 441 ± 73.7
- tissue to tissue ratio at 1 h [2, 9]: 2.68 ± 1.57
- tissue to tissue ratio at 4 h [2, 9]: 3.08 ± 1.1
- tissue to tissue ratio at 24 h [2, 9]: 3.13 ± 1.28
